Experimental data: article PMC5983622, “New Insight into the Octamer of TYMS Stabilized by Intermolecular Cys43-Disulfide” (International Journal of Molecular Sciences, 2018)
Positions count from the first letter of the chain named.

B1: TYMS (Cys210Gly) (enzyme, human, UniProt P04818-1 1-313, looked up)
chain: MPVAGSELPRRPLPPAAQERDAEPRPPHGELQYLGQIQHILRCGVRKDDRTGTGTLSVFGMQARYSLRDEFPLLTTKRVFWKGVLEELLWFIKGSTNAKELSSKGVKIWDANGSRDFLDSLGFSTREEGDLGPVYGFQWRHFGAEYRDMESDYSGQGVDQLQRVIDTIKTNPDDRRIIMCAWNPRDLPLMALPPCHALCQFYVVNSELSGQLYQRSGDMGLGVPFNIASYALLTYMIAHITGLKPGDFIHTLGDAHIYLNHIEPLKIQLQREPRPFPKLRILRKVEKIDDFKAEDFQIEGYNPHPTIKMEMAV
notes: thymidylate synthase (TYMS), human, NM_001071.2, with Cys210Gly made by fusion PCR, in pET-28a(+); Same construct as m1 with the point mutation; source: expressed from pET-28a, purified (Ni-NTA twice); not shown: His6, N-terminal, kept
B2: TYMS (Cys180Gly) (enzyme, human, UniProt P04818-1 1-313, looked up)
chain: B1 chain with C180G, G210C
notes: thymidylate synthase (TYMS), human, NM_001071.2, with Cys180Gly made by fusion PCR, in pET-28a(+); Same construct as m1 with the point mutation; source: expressed from pET-28a, purified (Ni-NTA twice); not shown: His6, N-terminal, kept

Molecular target: the molecule itself
Test: SDS-PAGE without reductant (Coomassie brilliant blue, Western blot); purified protein, serially diluted, incubated with loading buffer without beta-mercaptoethanol at 37 °C or 100 °C for 10 min; also with beta-mercaptoethanol at 100 °C (~280 kDa band disappeared, ~70 kDa band weakened); also after incubation with 2 mM dUMP and 2 mM mTHF (bands unchanged); anti-His-tag blot

Protein | binding result
B1 | binds
B2 | binds
